From patent US20220396612A1 (UNIVERSIT DE TOURS, published 2022)

T1: denatured VLPs of BK polyomavirus VP-1 protein, serotype IV (BK virus (BKPyV), serotype IV, UniProt P14996 1-362)
T1 construct: also called IV denatured
T1 chain: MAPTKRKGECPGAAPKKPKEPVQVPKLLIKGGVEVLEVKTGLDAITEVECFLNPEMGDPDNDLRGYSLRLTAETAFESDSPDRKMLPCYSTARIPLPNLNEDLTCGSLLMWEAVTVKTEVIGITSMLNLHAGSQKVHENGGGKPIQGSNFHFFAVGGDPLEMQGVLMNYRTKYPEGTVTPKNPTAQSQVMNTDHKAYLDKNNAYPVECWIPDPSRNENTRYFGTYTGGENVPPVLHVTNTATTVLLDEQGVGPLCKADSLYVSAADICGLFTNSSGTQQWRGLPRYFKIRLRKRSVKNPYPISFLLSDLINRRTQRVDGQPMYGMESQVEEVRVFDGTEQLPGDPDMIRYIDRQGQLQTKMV

T2: virus-like particles (VLPs) of BK polyomavirus VP-1 protein, serotype Ia (BK virus (BKPyV), serotype Ia, UniProt P03088 1-361)
T2 construct: self-assembled native VLPs coated on ELISA plates; also called VLP Ia; BKV VP-1, serotype Ia
T2 chain: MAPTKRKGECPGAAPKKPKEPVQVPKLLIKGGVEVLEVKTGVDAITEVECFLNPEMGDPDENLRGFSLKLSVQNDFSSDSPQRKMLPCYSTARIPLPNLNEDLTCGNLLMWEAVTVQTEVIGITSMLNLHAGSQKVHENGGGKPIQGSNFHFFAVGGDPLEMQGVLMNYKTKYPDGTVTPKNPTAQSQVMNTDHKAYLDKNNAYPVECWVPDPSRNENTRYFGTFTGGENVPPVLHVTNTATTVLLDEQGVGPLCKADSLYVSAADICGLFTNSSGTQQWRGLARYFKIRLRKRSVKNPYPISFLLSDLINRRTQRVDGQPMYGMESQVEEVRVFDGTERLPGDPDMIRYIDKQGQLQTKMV

T3: virus-like particles (VLPs) of BK polyomavirus VP-1 protein, serotype II (BK virus (BKPyV), serotype II, UniProt P14996 1-362)
T3 construct: native VLPs; also called VLP II
T3 chain: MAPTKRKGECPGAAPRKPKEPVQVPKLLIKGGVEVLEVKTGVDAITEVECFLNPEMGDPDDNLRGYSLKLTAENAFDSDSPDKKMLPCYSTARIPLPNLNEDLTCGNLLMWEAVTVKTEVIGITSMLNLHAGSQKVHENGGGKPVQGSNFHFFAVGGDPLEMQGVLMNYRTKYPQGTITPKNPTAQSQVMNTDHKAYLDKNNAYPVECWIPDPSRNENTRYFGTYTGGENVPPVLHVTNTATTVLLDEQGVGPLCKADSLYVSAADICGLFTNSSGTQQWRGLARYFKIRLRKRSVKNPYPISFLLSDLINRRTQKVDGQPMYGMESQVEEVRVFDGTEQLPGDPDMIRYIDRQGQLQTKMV

T4: virus-like particles (VLPs) of BK polyomavirus VP-1 protein, serotype IV (BK virus (BKPyV), serotype IV, UniProt P14996 1-362)
T4 construct: native VLPs; also called VLP IV
T4 chain: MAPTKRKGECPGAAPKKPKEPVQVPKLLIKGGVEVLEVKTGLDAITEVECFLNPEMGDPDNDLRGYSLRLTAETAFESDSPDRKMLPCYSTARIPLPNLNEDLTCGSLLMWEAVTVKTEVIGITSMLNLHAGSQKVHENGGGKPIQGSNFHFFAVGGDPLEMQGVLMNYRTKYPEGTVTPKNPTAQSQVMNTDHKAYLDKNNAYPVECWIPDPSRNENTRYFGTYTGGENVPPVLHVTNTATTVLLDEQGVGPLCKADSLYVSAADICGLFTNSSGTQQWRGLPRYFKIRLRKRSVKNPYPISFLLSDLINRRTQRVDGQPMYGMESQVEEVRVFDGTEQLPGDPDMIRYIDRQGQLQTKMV

T5: virus-like particles (VLPs) of BK polyomavirus VP-1 protein, serotype Ib2 (BK virus (BKPyV), serotype Ib2, PA …, UniProt P03088 1-362)
T5 construct: native VLPs; also the immunogen; also called VLP Ib2; BK Ib2
T5 chain: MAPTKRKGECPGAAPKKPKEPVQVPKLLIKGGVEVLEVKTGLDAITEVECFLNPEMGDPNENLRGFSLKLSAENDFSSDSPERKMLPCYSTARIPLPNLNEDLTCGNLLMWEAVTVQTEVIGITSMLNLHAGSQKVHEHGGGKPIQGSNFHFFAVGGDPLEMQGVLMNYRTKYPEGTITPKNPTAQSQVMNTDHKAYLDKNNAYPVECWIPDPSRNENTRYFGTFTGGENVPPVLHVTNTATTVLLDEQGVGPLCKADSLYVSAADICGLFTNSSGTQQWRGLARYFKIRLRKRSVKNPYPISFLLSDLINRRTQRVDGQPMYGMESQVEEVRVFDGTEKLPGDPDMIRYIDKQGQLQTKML


Key:
[1] = target: T1, denatured VLPs of BK polyomavirus VP-1 …; assay: ELISA on denatured VLP (carbonate pH 10.6 + DTT; threshold OD>0.5)
Description: The wells were then blocked for 1 hour at +37° C. with a PBS/SVF mixture. After dilution in a dilution buffer containing SVF, PBS and Tween® 20, the individual culture supernatants or purified antibodies were added for 1 hour at +37° C. The wells were washed four times in a row with Wash Buffer and a secondary anti-mouse peroxidase antibody was added to the 1/2000 dilution for 1 hour at +37° C. The wells were washed again four times in a row and the substrate was added for 30 minutes at room temperature. A stop solution was added and then each well was read by measuring the absorbance at 492 nm with a spectrophotometer. The value obtained for the average of the control wells (PBS in the first step) was subtracted from the optical density values obtained for each well (detection threshold: OD>0.5).

[2] = target: T2, virus-like particles (VLPs) of BK …; assay: ELISA on coated VLP; supernatant 1/10 240
Description: (§1) To do this, the VLPs produced were deposited at a concentration of 1 μg/mL in PBS and incubated overnight at +4° C. The wells were then blocked for 1 h at +37° C. with a PBS/FCS (phosphate-buffered saline/fetal calf serum) mixture. After dilution in a dilution buffer containing FCS, PBS and Tween® 20, the various hybridoma culture supernatants were added for 1 h at +37° C. The wells were washed four times in a row with Wash Buffer and a secondary anti-mouse antibody coupled to peroxidase was added to the 1:2000 dilution for 1 h at +37° C. The wells were washed four more times and the substrate (OPD (ortho phenylene diamine)+H₂O₂) was added for 30 min at room temperature. A stop solution (H₂SO₄ 4N) was then added and each well was read by measuring the absorbance at 492 nm with a spectrophotometer. The value obtained for the average of the control wells (PBS in the first step) is subtracted from the optical density values obtained for each well.

[3] = target: T3, virus-like particles (VLPs) of BK …; assay: ELISA on coated VLP; supernatant 1/10 240
Description: as §1

[4] = target: T4, virus-like particles (VLPs) of BK …; assay: ELISA on coated VLP; supernatant 1/10 240
Description: as §1

[5] = target: T5, virus-like particles (VLPs) of BK …; assay: ELISA on coated VLP; supernatant 1/10 240
Description: as §1

[6] = target: T2, virus-like particles (VLPs) of BK …; assay: ELISA on coated VLP; supernatant 1/2 560
Description: as §1

[7] = target: T3, virus-like particles (VLPs) of BK …; assay: ELISA on coated VLP; supernatant 1/2 560
Description: as §1

[8] = target: T4, virus-like particles (VLPs) of BK …; assay: ELISA on coated VLP; supernatant 1/2 560
Description: as §1

[9] = target: T5, virus-like particles (VLPs) of BK …; assay: ELISA on coated VLP; supernatant 1/2 560
Description: as §1

[10] = target: T3, virus-like particles (VLPs) of BK …; assay: ELISA on coated VLP; supernatant 1/20 480
Description: as §1

[11] = target: T4, virus-like particles (VLPs) of BK …; assay: ELISA on coated VLP; supernatant 1/20 480
Description: as §1

[12] = target: T5, virus-like particles (VLPs) of BK …; assay: ELISA on coated VLP; supernatant 1/20 480
Description: as §1

Binder | OD 492 nm [1] [OD] | OD 492 nm [2] [OD] | OD 492 nm [3] [OD] | OD 492 nm [4] [OD] | OD 492 nm [5] [OD] | OD 492 nm [6] [OD] | OD 492 nm [7] [OD] | OD 492 nm [8] [OD] | OD 492 nm [9] [OD] | OD 492 nm [10] [OD] | OD 492 nm [11] [OD] | OD 492 nm [12] [OD]
monoclonal antibody ‘18A2’ derived from hybridoma 18A2 (antibody, V domains shown, Mouse hybridoma antibody) VH: DVQLQESGPGLVKPSQSLSLTCSVTGYSITSGYYWNWIRQFPGNKLEWMGYISYDGSNNYNPSLKNRISITRDTSKNQFFLKLNSVTTEDTATYYCARWEGTTDYWGQGTTLTVSS VL: not shown | 0.709 |  |  |  |  |  |  |  |  |  |  | 
monoclonal antibody ‘F6’ secreted by clone BK6A2F6 (antibody) heavy: EVQLQQSGPELVKPGASVKISCKASGYSFTGYFMNWVKQSHGKSLEWIGRINPYNGDTFYNQKFKGKATLTVDKSSSTAHMELLSLTSEDSAVYYCGSYYYGDYFDYWGQGTTLTVSSAKTTPPSVYPLAPGSAAQTNSMVTLGCLVKGYFPEPVTVTWNSGSLSSGVHTFPAVLQSDLYTLSSSVTVPSSTWPSETVTCNVAHPASSTKVDKKIVPRDCGCKPCICTVPEVSSVFIFPPKPKDVLTITLTPKVTCVVVDISKDDPEVQFSWFVDDVEVHTAQTQPREEQFNSTFRSVSELPIMHQDWLNGKEFKCRVNSAAFPAPIEKTISKTKGRPKAPQVYTIPPPKEQMAKDKVSLTCMITDFFPEDITVEWQWNGQPAENYKNTQPIMDTDGSYFVYSKLNVQKSNWEAGNTFTCSVLHEGLHNHHTEKSLSHSPGK light: […] |  | 0.19 | 0.08 | 0.48 | 0.08 | 1.06 | 0.07 | 1.28 | 0.09 | 0.1 | 0.26 | 0.11
monoclonal antibody ‘H6’ secreted by clone BK6A2H6 (antibody, V domains shown) VH: EVQLQQSGPELVKPGASVKISCKASGYSFTGYFMNWVKQSHGKSLEWIGRINPYNGDTFYNQKFKGKATLTVDKSSSTAHMELLSLTSEDSAVYYCGSYYYGDYFDYWGQGTTLTVSS VL: SIVMTQIPKFLLVSEGDRVTITCKASQSVSNDVAWYQQKSGQSPKLLIYYASNRYTGVPDRFTGSGYGTDFTFTISTVQAEDLAVYFCQQDYSSPLTFGAGTKLELKR |  | 0.22 | 0.06 | 0.17 | 0.06 | 0.46 | 0.06 | 0.54 | 0.1 | 0.06 | 0.12 | 0.06
